According to the supplement of paper PMC9170038:

Test system: MS2 coat protein
Assay: apparent KD of MS2 coat protein; designed switch direction (-1 OFF switch, 1 ON switch): -1; higher = weaker reporter binding
How it was run: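 An oligonucleotide input, 200 uM small-molecule ligand, or no input was present during titration of SNAP-549-labelled MS2 coat protein, which was doubled from 0.7 or 1.5 nM to 3 µM. Designed RNA switches had been transcribed on Illumina chips by stalled E. coli RNA polymerase. Apparent KD per design is the median over clusters of curves fitted to normalised cluster fluorescence.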

[1] = input ligand: microRNA oligo, concentration not stated
[2] = Eterna round: R95, input ligand: microRNA oligo, concentration not stated
[3] = Eterna round: R95, input ligand: FMN 200 uM
[4] = Eterna round: R95, input ligand: none

Sequence	apparent KD of MS2 coat protein (input ligand: FMN 200 uM)	apparent KD of MS2 coat protein (input ligand: none)	apparent KD of MS2 coat protein [1]	apparent KD of MS2 coat protein [2]	apparent KD of MS2 coat protein [3]	apparent KD of MS2 coat protein [4]
AAAUAGCAUGAGGAUAUUGAACUGUAUUCAGUACGAGAAGGCAUGACAUGAGGAUCACCCAUGUUUUGUUGGGA [EX6 #5] (Eterna round: R97, puzzle: Exclusion 6)	126 nM	27 nM				
AAAUAGGCAGGAUAUACAUGAGGAUCACCCAUGUAAAUUUUUCGUUUAACUUGAAUGUGUAGAAGGGCCAUAAA [Ex3 #54] (Eterna round: R97, puzzle: Exclusion 3)	27.4 nM	26.8 nM				
AAAUAGGUAGGAUAUACAUGAGGAUCACCCAUGUGCUGCCGCGCGUCAAUCUCUUCACGUAGAAGGGCCCAGAC [Reveara] (Eterna round: R97, puzzle: Exclusion 3)	13.1 nM	14.1 nM				
AAAUCACAUGAGGAUCACCCAUGUGAGGAUAUGAUACUAUGUACUUCGGUACAUAGUAUCAGAAGGCAUGUGGA [Ex1-3: 89] (Eterna round: R96, puzzle: Exclusion 1)	43.1 nM	29.5 nM	22.6 nM			
AAAUCACAUGAGGAUCACCCAUGUGAGGAUAUGAUACUAUGUACUUCGGUACAUAGUAUCAGAAGGCAUGUGGA [Ex1-3: 89] (puzzle: Exclusion 1)				28.2 nM		
AAAUCGUGAGGAUAUCCAAUAUAUGACAUGAGGAUCACCCAUGUUUCCACUCGUACCUCCGGAGAAGGCACAAUAA [Ex5 #75] (Eterna round: R97, puzzle: Exclusion 5)	27.2 nM	27.1 nM				
AAAUGAUGAGGAUAUACAUGAGGAUCACCCAUGUGUAAAAAUAAAUACACAAAAGAAAGUAGAAGGCAUCAAAA [Ex 3 May 12] (Eterna round: R96, puzzle: Exclusion 3)			25.1 nM			
AAAUGGAACAGAGGAUAUAGGGACAUGAGGAUCACCCAUGUUUUUUUUGGUUGGGUGGGUUUGGGCUAGAAGGCUGGGAAGAAA [Kawasakiqro] (Eterna round: R96, puzzle: Exclusion NG 2)	30.2 nM	33 nM	26.8 nM			
AAAUUAGCAAGUAGAUCCGACAUGAGGAUCACCCAUGUAAUCUAAUAUUACGCUGCACGAAAGUGCGCUCGUCUUAG [Sensor-V1 #14] (Eterna round: R97, puzzle: Sensor, turn-off variant 1)	416 nM	470 nM				
AAAUUAGCAAGUAGAUCCGACAUGAGGAUCACCCAUGUUAUCUGAAAGAACGCAGAAUAAUUGUGAGCUCGUCUAAA [Sensor-V1 #3] (Eterna round: R97, puzzle: Sensor, turn-off variant 1)	162 nM	181 nM				
AAAUUAGCAAGUAGGUCCGACAUGAGGAUCACCCAUGUAAUCUAAUAUUACGCUGCAUGAGAGUGCGCUCGUCUUAG [Sensor-V1 #17] (Eterna round: R97, puzzle: Sensor, turn-off variant 1)	241 nM	337 nM				
AACAAGGUAGGAUAUACAUGAGGAUCACCCAUGUCCCACCCGUUACCUAUGACCAUAUGUAGAAGGACCAAUAA [Exy#6] (Eterna round: R97, puzzle: Exclusion 3)	16.7 nM	17.8 nM				
AACAAUAAGGAGGAUAUCGUAUCGGAAACGAUACGAGAAGGCUUAACAUGAGGAUCACCCAUGUUCCUCAAUAA [Fiskers Ex 6 - 23] (puzzle: Exclusion 6)				33.1 nM		
AACAGCACAGGAUAUACAUGAGGAUCACCCAUGUGAGAAUUAAGUGGCGUACCACAAAGUAGAAGGGUGCUGGA [Mat - Exclusion 3 - JL mod - D39] (Eterna round: R96, puzzle: Exclusion 3)			36 nM			
AACAGGUCAGGAUAUACAUGAGGAUCACCCAUGUAGACUUCUAGUCUAUCGUGACUGUGUAGAAGGGACCUGAA [Exclusion 3 (MOD of #98 Marzena11)] (Eterna round: R97, puzzle: Exclusion 3)	146 nM	40.1 nM				
AACAGUGAUGAGGAUAUAUAAAGAGAAAAGAAAAUAGAAGGUGUCACAUGAGGAUCACCCAUGUGUUCUUCAGA [EX6 A.12] (Eterna round: R97, puzzle: Exclusion 6)	17.4 nM	16.5 nM				
AACAUGUCAGGAUAUAUGACAUGGCUCUUCGGAGCAAGCUCAUAGAAGGGACAUGAGGAUCACCCAUGUAGAGC [Ex4-3: 21] (puzzle: Exclusion 4)				21.7 nM		
AACCAGCGAGGAUAUGCUUGCGCUUGUUCUGGUUAUAAUCGACUUGAGGAUCACCCAAGUAGAAGGUGCUGGCG [EX2 #56] (Eterna round: R97, puzzle: Exclusion 2)	28.7 nM	22.5 nM				

Sequence	apparent KD of MS2 coat protein (input ligand: FMN 200 uM)	apparent KD of MS2 coat protein (input ligand: none)	apparent KD of MS2 coat protein [1]	apparent KD of MS2 coat protein [2]	apparent KD of MS2 coat protein [3]	apparent KD of MS2 coat protein [4]
AACCUAAGGCAUAGCUUUAGGUUUACAUGAGGAUCACCCAUGUAGGAUAUGGUAGGCAUAGCUUACCAGAAGGACAUGAAAAUU [Mat - Exclusion NG 3 - Mod of JL - D31] (Eterna round: R96, puzzle: Exclusion NG 3)	240 nM	46.1 nM	46.8 nM			
AACCUGAGGCAAAGCUUUAGGUGUACAUGAGGAUCACCCAUGUAGGAUAUGGUAGGCAAAGCUUACCAGAAGGACAUUUAGGUU [Mat - Exclusion NG 3 - Mod of JL - D44] (Eterna round: R96, puzzle: Exclusion NG 3)	81.6 nM	52.1 nM	36.5 nM			
AACCUGAGGCAAAGCUUUAGGUGUACAUGAGGAUCACCCAUGUAGGAUAUGGUAGGCUUUGCUUACCAGAAGGACAUUAUGAUG [Mat - Exclusion NG 3 - Mod of JL - D50] (Eterna round: R96, puzzle: Exclusion NG 3)	68.6 nM	51.7 nM	41.9 nM			
AACGACGGAGGAUAUACACCCUGGGACUCAUUAUCCCUUAGACAUGAGGAUCACCCAUGUAGAAGGCCGAACAC [EX2 B.3] (Eterna round: R97, puzzle: Exclusion 2)	174 nM	29.8 nM				
AACGGUGGGUAGGAUAUCCGGUUCUAGUUGCCAGGAGAAGGGCCCACAUGAGGAUCACCCAUGUGGGUGGGCUC [Maesri] (Eterna round: R96, puzzle: Exclusion 6)	44.6 nM	81.3 nM	43.1 nM			
AACGGUGGGUAGGAUAUCCGGUUCUAGUUGCCAGGAGAAGGGCCCACAUGAGGAUCACCCAUGUGGGUGGGCUC [Maesri] (puzzle: Exclusion 6)				43.6 nM		
AACGUACGUCGAGGAUAUGACGAGAAAUAUGAGUCAGAAGGCGACUGGUACAUGAGGAUCACCCAUGUUGCGACCAUGUGGCUU [Eternabot solution 23] (Eterna round: R96, puzzle: Exclusion NG 1)	53.7 nM	17.9 nM	13.4 nM			
AACGUCUAGGUAGGAUAUCCACCAACAGGUGGAAGGAUAUGUUCGCAGAAGGUUCGCCAACAGGCGGAGAAGGACCUACGCGUA [pwkr exNG2 2xF7 2xFMN.31] (Eterna round: R96, puzzle: Exclusion NG 2)	11.1 nM	116 nM	24.6 nM			
AAGAAACAUGAGGAUCACCCAUGUGAGGAUAUGAAAAAGAAAAGAAAAGAAAGAAGGUUCAGAAGGCACAAAGG [salish99-ex1_r3_027] (Eterna round: R96, puzzle: Exclusion 1)			25.4 nM			
AAGAAACAUGAGGAUCACCCAUGUGAGGAUAUGAAAAAGAAAAGAAAAGAAAGAAGGUUCAGAAGGCACAAAGG [salish99-ex1_r3_027] (puzzle: Exclusion 1)				45.8 nM	48.6 nM	28.5 nM
AAGAAACAUGAGGAUCACCCAUGUGAGGAUAUGAAAAAGAAAAGAAAAGAAAGAAUAAUCAGAAGGCACAAAGG [Mat - Mod of Hog D11] (puzzle: Exclusion 1)				34.3 nM	50.7 nM	40.1 nM
AAGAAACAUGAGGAUCACCCAUGUGAGGAUAUGAGAAAGAAAAGAAAAGAAAGAAGAAUCAGAAGGCACAAAGG [salish99-ex1_r3_032] (puzzle: Exclusion 1)				77.7 nM	117 nM	116 nM
AAGAAACAUGAGGAUCACCCAUGUGAGGAUAUGAGUAAGAAAAGAAAAGAAAGAAGAUUCAGAAGGCACAAAGG [salish99-ex1_r3_057] (puzzle: Exclusion 1)				58.1 nM	94.7 nM	73.2 nM
AAGAAACAUGAGGAUCACCCAUGUGAGGAUAUGAUAUGCUAAGCGUAAGCUUAGUAUAUCAGAAGGCACAAAGG [Salishxlusion 1 - Jieux - Exclusion 1] (Eterna round: R97, puzzle: Exclusion 1)	319 nM	120 nM				
AAGAAACAUGAGGAUCACCCAUGUGAGGAUAUGGCCCGCCCGGCGUGAGCUGGAUAAAUCAGAAGGCACAAAGG [salish99_ex1_r4_012] (Eterna round: R97, puzzle: Exclusion 1)	57.2 nM	46 nM				
AAGAAACAUGAGGAUCACCCAUGUGAGGAUAUGUAAAAGAAAAGAAAAUAAAGAAGAAACAGAAGGCACAAAGG [Mat - Mod of Hog D21] (Eterna round: R96, puzzle: Exclusion 1)			30.9 nM			
AAGAAACAUGAGGAUCACCCAUGUGAGGAUAUGUAAAAGAAAAGAAAAUAAAGAAGAAACAGAAGGCACAAAGG [Mat - Mod of Hog D21] (puzzle: Exclusion 1)				39.1 nM	51.8 nM	31.8 nM
